From the supplement of paper PMC10567573

B1: STK38L (parent)
chain: FLPGGDMMTLLMKKDTLTEEETQF

Variants of: B1
Assay: protein stability index of a GFP-peptide fusion (GPS, HEK-293T) (PSI 1-6); higher = more stable
Settings: c terminus: a fixed tail appended
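Note: lentivirally expressed fusions sorted by FACS into six bins by GFP to DsRed ratio, PSI derived from sequencing read proportions per bin multiplied by bin number.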

Point of comparison: FLPGGDMMTLLMKKDWLTEEETQF, protein stability index 1.96. Against it:
- FLPGGDMMTLLMKKHTLTEEETQF — higher, 2.35
- FLPGGDMMTLLMKKYTLTEEETQF — lower, 1.1
- FLPGGDMMTLLMKKPTLTEEETQF — lower, 1.83
- FLPGGDMMTLLMKKFTLTEEETQF — lower, 1.94
- FLPGGDMMTLLMKKTTLTEEETQF — lower, 1.86
- FLPGGDMMTLLMKKWTLTEEETQF — lower, 1.62
- FLPGGDMMTLLMKKITLTEEETQF — lower, 1.75
- FLPGGDMMTLLMKKETLTEEETQF — higher, 3.01
- FLPGGDMMTLLMKKKTLTEEETQF — lower, 1.66
- FLPGGDMMTLLMKKQTLTEEETQF — lower, 1.66
- FLPGGDMMTLLMKKGTLTEEETQF — higher, 2.05
- FLPGGDMMTLLMKKLTLTEEETQF — higher, 2.56
- FLPGGDMMTLLMKKATLTEEETQF — lower, 1.62
- FLPGGDMMTLLMKKMTLTEEETQF — higher, 2.53
- FLPGGDMMTLLMKKCTLTEEETQF — higher, 2.16
- FLPGGDMMTLLMKKRTLTEEETQF — lower, 1.84
- FLPGGDMMTLLMKKSTLTEEETQF — lower, 1.76
- FLPGGDMMTLLMKKVTLTEEETQF — higher, 2.2
- FLPGGDMMTLLMKKNTLTEEETQF — higher, 2.23
- FLPGGDMMTLLMKKDTLTEEETIF — higher, 2.12
- FLPGGDMMTLLMKKDTLTEEETHF — higher, 2.27
- FLPGGDMMTLLMKKDTLTEEETLF — lower, 1.74
- FLPGGDMMTLLMKKDTLTEEETAF — higher, 2.05
- FLPGGDMMTLLMKKDTLTEEETTF — higher, 2.09
- FLPGGDMMTLLMKKDTLTEEETDF — higher, 3.06
- FLPGGDMMTLLMKKDTLTEEETEF — higher, 2.25
- FLPGGDMMTLLMKKDTLTEEETGF — higher, 2.61
- FLPGGDMMTLLMKKDTLTEEETVF — higher, 2.25
- FLPGGDMMTLLMKKDTLTEEETKF — higher, 2.45
- FLPGGDMMTLLMKKDTLTEEETFF — lower, 1.24
- FLPGGDMMTLLMKKDTLTEEETSF — higher, 2.91
- FLPGGDMMTLLMKKDTLTEEETNF — higher, 2.37
- FLPGGDMMTLLMKKDTLTEEETRF — higher, 3.09
- FLPGGDMMTLLMKKDTLTEEETPF — higher, 2.21
- FLPGGDMMTLLMKKDTLTEEETCF — higher, 2.24
- FLPGGDMMTLLMKKDTLTEEETMF — higher, 2.4
- FLPGGDMMTLLMKKDTLTEEETWF — lower, 1.43
- FLPGGDMMTLLMKKDTLFEEETQF — lower, 1.73
- FLPGGDMMTLLMKKDTLYEEETQF — higher, 2.18
- FLPGGDMMTLLMKKDTLEEEETQF — higher, 2.36
- FLPGGDMMTLLMKKDTLDEEETQF — higher, 2.29
- FLPGGDMMTLLMKKDTLAEEETQF — higher, 2.1
- FLPGGDMMTLLMKKDTLCEEETQF — lower, 1.57
- FLPGGDMMTLLMKKDTLKEEETQF — higher, 2
- FLPGGDMMTLLMKKDTLPEEETQF — higher, 2.68
- FLPGGDMMTLLMKKDTLSEEETQF — higher, 2.83
- FLPGGDMMTLLMKKDTLGEEETQF — higher, 2.01
- FLPGGDMMTLLMKKDTLREEETQF — lower, 1.84
- FLPGGDMMTLLMKKDTLHEEETQF — higher, 2.05
- FLPGGDMMTLLMKKDTLNEEETQF — higher, 2.24
- FLPGGDMMTLLMKKDTLLEEETQF — higher, 2.15
- FLPGGDMMTLLMKKDTLWEEETQF — higher, 2.17
- FLPGGDMMTLLMKKDTLQEEETQF — higher, 2.34
- FLPGGDMMTLLMKKDTLIEEETQF — lower, 1.58
- FLPGGDMMTLLMKKDTLMEEETQF — lower, 1.7
- FLPGGDMMTLLMKKDTLVEEETQF — higher, 2.49
- FLPGGDMMTLLMKKDRLTEEETQF — higher, 2.11
- FLPGGDMMTLLMKKDGLTEEETQF — higher, 2.43
- FLPGGDMMTLLMKKDELTEEETQF — higher, 2.19
- FLPGGDMMTLLMKKDALTEEETQF — higher, 2.4
- FLPGGDMMTLLMKKDDLTEEETQF — higher, 2.58
- FLPGGDMMTLLMKKDFLTEEETQF — lower, 1.89
- FLPGGDMMTLLMKKDPLTEEETQF — higher, 3.02
- FLPGGDMMTLLMKKDVLTEEETQF — higher, 2.33
- FLPGGDMMTLLMKKDHLTEEETQF — higher, 2.48
- FLPGGDMMTLLMKKDNLTEEETQF — higher, 2.51
- FLPGGDMMTLLMKKDYLTEEETQF — higher, 2.24
- FLPGGDMMTLLMKKDILTEEETQF — higher, 2.36
- FLPGGDMMTLLMKKDSLTEEETQF — higher, 2.13
- FLPGGDMMTLLMKKDKLTEEETQF — higher, 2.31
- FLPGGDMMTLLMKKDMLTEEETQF — higher, 2
- FLPGGDMMTLLMKKDLLTEEETQF — lower, 1.74
- FLPGGDMMTLLMKKDQLTEEETQF — higher, 2.17
- FLPGGDMMTLLMKKDCLTEEETQF — higher, 2.21
- FLPGGDMMTLLMKKDTLTEEWTQF — higher, 2.14
- FLPGGDMMTLLMKKDTLTEEGTQF — higher, 2.89
- FLPGGDMMTLLMKKDTLTEEDTQF — higher, 2.07
- FLPGGDMMTLLMKKDTLTEEVTQF — lower, 1.71
- FLPGGDMMTLLMKKDTLTEEHTQF — lower, 1.81
- FLPGGDMMTLLMKKDTLTEELTQF — lower, 1.56
- FLPGGDMMTLLMKKDTLTEETTQF — lower, 1.74
- FLPGGDMMTLLMKKDTLTEEYTQF — lower, 1.88
- FLPGGDMMTLLMKKDTLTEEITQF — higher, 2
- FLPGGDMMTLLMKKDTLTEEQTQF — higher, 2.04
- FLPGGDMMTLLMKKDTLTEECTQF — higher, 2.01
- FLPGGDMMTLLMKKDTLTEEPTQF — lower, 1.65
- FLPGGDMMTLLMKKDTLTEESTQF — higher, 2.19
- FLPGGDMMTLLMKKDTLTEEATQF — lower, 1.94
- FLPGGDMMTLLMKKDTLTEERTQF — higher, 2.21
- FLPGGDMMTLLMKKDTLTEEMTQF — higher, 1.98
- FLPGGDMMTLLMKKDTLTEENTQF — lower, 1.84
- FLPGGDMMTLLMKKDTLTEEFTQF — lower, 1.2
- FLPGGDMMTLLMKKDTLTEEKTQF — higher, 2.16
